Source: the supplement of paper PMC11316812
± gives the standard deviation of the averaged measurements.

Key:
[1] = tested on: hTERT-HMEC; assay: percentage of EdU-negative (G0-arrested) nuclei per well, 72 h; higher = more G0 arrest; conditions: reference: sequence is the full UniProt precursor, the tested protein was the secreted form or ectodomain
[2] = tested on: MCF7; assay: as above; conditions: reference: sequence is the full UniProt precursor, the tested protein was the secreted form or ectodomain
[3] = protein concentration 0.01775 µM
[4] = protein concentration 0.1775 µM
[5] = protein concentration 0.0308571 µM
[6] = protein concentration 0.308571 µM
[7] = protein concentration 0.0225 µM
[8] = protein concentration 0.03125 µM
[9] = protein concentration 0.3125 µM
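Further: secreted proteins added to cultured cells, EdU pulse at the end, nuclei found by Hoechst imaging, EdU status from nuclear versus surrounding ring intensity ratio, PBS as neutral control.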

| Sequence | percentage of EdU-negative [1, 7] [%] | percentage of EdU-negative ([1]; protein concentration 0.225 µM) [%] | percentage of EdU-negative [2, 7] [%] | percentage of EdU-negative ([2]; protein concentration 0.225 µM) [%] | further results |
| --- | --- | --- | --- | --- | --- |
| MASWLRRKLRGKRRPVIAFCLLMILSAMAVTRFPPQRPSAGPDPGPMEPQGVTGAPATHIRQALSSSRRQRARNMGFWRSRALPRNSILVCAEEQGHRARVDRSRESPGGDLRHPGRVRRDITLSGHPRLSTQHVVLLREDEVGDPGTKDLGHPQHGSPIQETQSEVVTLVSPLPGSDMAALPAWRATSGLTLWPHTAEGRDLLGAENRALTGGQQAEDPTLASGAHQWPGSVEKLQGSVWCDAETLLSSSRTGGQAPPWLTDHDVQMLRLLAQGEVVDKARVPAHGQVLQVGFSTEAALQDLSSPRLSQLCSQGLCGLIKRPGDLPEVLSFHVDRVLGLRRSLPAVARRFHSPLLPYRYTDGGARPVIWWAPDVQHLSDPDEDQNSLALGWLQYQALLAHSCNWPGQAPCPGIHHTEWARLALFDFLLQVHDRLDRYCCGFEPEPSDPCVEERLREKCQNPAELRLVHILVRSSDPSHLVYIDNAGNLQHPEDKLNFRLLEGIDGFPESAVKVLASGCLQNMLLKSLQMDPVFWESQGGAQGLKQVLQTLEQRGQVLLGHIQKHNLTLFRDEDP [Q9UFP1] | – | – | – | – | percentage of EdU-negative [1, 3]: 4.53 ± 0.69%; percentage of EdU-negative [1, 4]: 4.83 ± 0.99%; percentage of EdU-negative [2, 3]: 25.4 ± 2.1%; percentage of EdU-negative [2, 4]: 24.5 ± 4.3% |
| MPLGLLWLGLALLGALHAQAQDSTSDLIPAPPLSKVPLQQNFQDNQFQGKWYVVGLAGNAILREDKDPQKMYATIYELKEDKSYNVTSVLFRKKKCDYWIRTFVPGCQPGEFTLGNIKSYPGLTSYLVRVVSTNYNQHAMVFFKKVSQNREYFKITLYGRTKELTSELKENFIRFSKSLGLPENHIVFPVPIDQCIDG | – | – | – | – | percentage of EdU-negative [1, 5]: 4.56 ± 0.62%; percentage of EdU-negative [1, 6]: 8.76 ± 0.27%; percentage of EdU-negative [2, 5]: 26.8 ± 1.9%; percentage of EdU-negative [2, 6]: 28.2 ± 1.9% |
| MLGQVVTLILLLLLKVYQGKGCQGSADHVVSISGVPLQLQPNSIQTKVDSIAWKKLLPSQNGFHHILKWENGSLPSNTSNDRFSFIVKNLSLLIKAAQQQDSGLYCLEVTSISGKVQTATFQVFVFESLLPDKVEKPRLQGQGKILDRGRCQVALSCLVSRDGNVSYAWYRGSKLIQTAGNLTYLDEEVDINGTHTYTCNVSNPVSWESHTLNLTQDCQNAHQEFRFWPFLVIIVILSALFLGTLACFCVWRRKRKEKQSETSPKEFLTIYEDVKDLKTRRNHEQEQTFPGGGSTIYSMIQSQSSAPTSQEPAYTLYSLIQPSRKSGSRKRNHSPSFNSTIYEVIGKSQPKAQNPARLSRKELENFDVYS [Q9BZW8] | 5.21 ± 0.31 | 6.56 ± 1.1 | 25.82 ± 0.11 | 26.1 ± 1.3 | – |
| MAQYLSTLLLLLATLAVALAWSPKEEDRIIPGGIYNADLNDEWVQRALHFAISEYNKATKDDYYRRPLRVLRARQQTVGGVNYFFDVEVGRTICTKSQPNLDTCAFHEQPELQKKQLCSFEIYEVPWENRRSLVKSRCQES | 5.26 ± 0.4 | 5.09 ± 0.29 | 25.5 ± 1.2 | 25 ± 0.45 | – |
| MWLGRRALCALVLLLACASLGLLYASTRDAPGLRLPLAPWAPPQSPRRPELPDLAPEPRYAHIPVRIKEQVVGLLAWNNCSCESSGGGLPLPFQKQVRAIDLTKAFDPAELRAASATREQEFQAFLSRSQSPADQLLIAPANSPLQYPLQGVEVQPLRSILVPGLSLQAASGQEVYQVNLTASLGTWDVAGEVTGVTLTGEGQADLTLVSPGLDQLNRQLQLVTYSSRSYQTNTADTVRFSTEGHEAAFTIRIRHPPNPRLYPPGSLPQGAQYNISALVTIATKTFLRYDRLRALITSIRRFYPTVTVVIADDSDKPERVSGPYVEHYLMPFGKGWFAGRNLAVSQVTTKYVLWVDDDFVFTARTRLERLVDVLERTPLDLVGGAVREISGFATTYRQLLSVEPGAPGLGNCLRQRRGFHHELVGFPGCVVTDGVVNFFLARTDKVREVGFDPRLSRVAHLEFFLDGLGSLRVGSCSDVVVDHASKLKLPWTSRDAGAETYARYRYPGSLDESQMAKHRLLFFKHRLQCMTSQ | – | – | – | – | percentage of EdU-negative [1, 8]: 5.346 ± 0.02%; percentage of EdU-negative [1, 9]: 5.55 ± 0.9%; percentage of EdU-negative [2, 8]: 24.7 ± 5.6%; percentage of EdU-negative [2, 9]: 27 ± 3.4% |
| MAVRQWVIALALAALLVVDREVPVAAGKLPFSRMPICEHMVESPTCSQMSNLVCGTDGLTYTNECQLCLARIKTKQDIQIMKDGKC | 5.06 ± 0.67 | 4.68 ± 0.28 | 26.2 ± 1.9 | 25.8 ± 0.45 | – |
